For this data set, the target named is MBP-SlMYC2 (Solanum lycopersicum, UniProt A0A3Q7HRZ6 1-689). Kind of data set: EMSA; LightShift Chemiluminescent EMSA kit (Thermo Scientific), acrylamide gel; buffer, salt, pH and temperature not given. Particulars: protein: recombinant; tags: N-terminal MBP (pMAL-c2); chain copies: 2; label: biotin (3' end per Methods); blunt. (Mobility shift assays separate free from complexed probe on a gel.)
MBP-SlMYC2, sequence (A0A3Q7HRZ6 whole entry): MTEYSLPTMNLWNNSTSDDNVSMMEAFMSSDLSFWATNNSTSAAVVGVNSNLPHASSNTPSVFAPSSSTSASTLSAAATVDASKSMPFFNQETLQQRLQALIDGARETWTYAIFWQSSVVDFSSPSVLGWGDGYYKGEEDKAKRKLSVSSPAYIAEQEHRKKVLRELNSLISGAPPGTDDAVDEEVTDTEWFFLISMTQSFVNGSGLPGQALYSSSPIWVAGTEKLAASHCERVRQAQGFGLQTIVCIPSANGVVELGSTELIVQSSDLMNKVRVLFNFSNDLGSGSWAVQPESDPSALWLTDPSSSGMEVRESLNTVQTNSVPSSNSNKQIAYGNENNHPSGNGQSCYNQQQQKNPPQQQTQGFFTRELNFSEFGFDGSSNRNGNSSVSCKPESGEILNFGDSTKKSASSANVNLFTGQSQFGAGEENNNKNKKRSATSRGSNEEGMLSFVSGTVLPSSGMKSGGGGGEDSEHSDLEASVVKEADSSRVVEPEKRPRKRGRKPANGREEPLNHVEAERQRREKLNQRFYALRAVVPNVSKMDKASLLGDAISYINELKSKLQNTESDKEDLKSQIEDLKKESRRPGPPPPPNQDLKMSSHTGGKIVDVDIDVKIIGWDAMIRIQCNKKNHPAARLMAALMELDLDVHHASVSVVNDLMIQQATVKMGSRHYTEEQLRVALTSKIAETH

B1: TomLoxDpro probe-369 (dsDNA)
DNA 1: TCGGTTTGACTAAATTCCACCATGTGTAAAGCTTGCACTAAAATGAAACC
DNA 2: GGTTTCATTTTAGTGCAAGCTTTACACATGGTGGAATTTAGTCAAACCGA
For B1, the binding result was “binds”.

These data come from paper PMC3861047, “Role of Tomato Lipoxygenase D in Wound-Induced Jasmonate Biosynthesis and Plant Immunity to Insect Herbivores”.
